The values below come from patent publication US20260224727A1, “COMPOUNDS AND METHODS FOR TREATING, AMELIORATING, OR […]” (Yale University, priority 2023, published 2026).

Series [1] concerns the target mouse anti-citrullinated epitope recombinant antibody clone 12G1 (anti-CCP1). The series is described as follows: SPR binding of CCP1-GN4 to immobilized anti-CCP1 antibody (Biacore S200, steady state affinity). The note with it: antibody clone 12G1 immobilized on CM5 chip, 25° C., steady state affinity model, read-out: KD (anti-CCP). The method, then:
With reference to FIG. 5A, binding of CCP1-GN4 was assessed using a surface plasmon resonance (SPR) on a Biacore S200 instrument. Prior to binding studies, 20 μg/mL mouse anti-citrullinated epitope recombinant antibody clone 12G1 (anti-CCP1) (Creative BioLabs) was immobilized to a Series S Sensor Chip CM5 using amine coupling to a target of 1.000 response units (RU) in 10 mM sodium acetate buffer pH 5.5. In parallel, normal human IgG isotype control (R&D Systems) was immobilized as a reference subtraction control using identical conditions. Sensor chips and reagents necessary for amine coupling were purchased from Cytiva.
CCP1-GN4 was serially diluted in 100% DMSO and transferred to a 96-well microplate. 1×HBS-P buffer (Cytiva) was added to dilute sample to final test concentrations (1000 nM, 250 nM, 62.5 nM, 15.6 nM, 3.9 nM, 1 nM) in 1% DMSO. A solution of 1×HBS-P (Cytiva) containing 1% DMSO was prepared as running buffer immediately prior to binding experiments.
Samples were injected over the sensor chip with a contact time of 300 seconds, dissociation time of 600 seconds, and a flow rate of 30 μL/minute at 25° C. Between injections, a solution containing 50% DMSO in 1×HBS-P buffer was used to wash any remaining bound analyte from the sensor chip surface. […]

Series [2] deals with T1, recombinant biotin-ASGPR1 (Homo sapiens, UniProt P07306).
T1 construct: purchased Viva Biotech
T1 sequence (P07306 1-291): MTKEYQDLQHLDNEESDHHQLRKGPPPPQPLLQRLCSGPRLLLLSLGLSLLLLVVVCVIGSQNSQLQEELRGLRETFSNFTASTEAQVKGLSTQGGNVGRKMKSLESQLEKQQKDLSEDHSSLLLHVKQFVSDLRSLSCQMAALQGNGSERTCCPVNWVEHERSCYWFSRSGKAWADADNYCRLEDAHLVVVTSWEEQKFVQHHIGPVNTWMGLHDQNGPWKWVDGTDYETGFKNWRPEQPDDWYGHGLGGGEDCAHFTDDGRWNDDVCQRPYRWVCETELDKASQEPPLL
Description: SPR binding to ASGPR1 (Biacore 8K). The method, then:
With reference to FIG. 5B, binding to ASGPR1 was characterized by surface plasmon resonance (SPR) on a Biacore 8K instrument. Preceding binding measurement, recombinant biotin-ASGPR1 (Viva Biotech) was diluted to a concentration of 2 μg/mL in a buffer containing 20 mM Tris pH 8.0, 200 mM NaCl, 1 mM TCEP, 2 mM CaCl2), and 0.01% Tween-20. A Sensor Chip SA (Cytiva) was conditioned with three injections of 1 M NaCl in 50 mM NaOH prior to capturing […] ASGPR on the sensor chip surface. Capture was performed at a flow rate of 5 μL/min with a target level of 1000 RU. CCP1-GN4 was serially diluted across 10 points to final test concentrations (25 nM, 8.3 nM, 2.8 nM, 0.93 nM, 0.3 nM, 0.1 nM, 0.03 nM, 0.01 nM, 0.004 nM, 0.0013 nM) in buffer composed of 20 mM Tris pH 8.0, 200 mM NaCl, 1 mM TCEP, 2 mM CaCl2), 0.01% Tween-20, and a final solvent composition of 3% DMSO.
Samples were injected over the sensor chip surface with a contact time of 180 seconds, dissociation time of 600 seconds, flow rate of 40 μL/min and temperature of 25° C. Data files were fit to multi-cycle kinetics and steady state models using Biacore Insight Evaluation software to determine kinetic and affinity binding parameters.
On the technique in general: SPR reads the build-up and loss of mass on a sensor chip optically.

Series [3] in a line: Plasma stability in mouse plasma (LCMS, percent remaining). In kind it is in vitro ADME. The following applies: 37° C., 2 hours incubation, read-out: T1/2 plasma stability. The method, then:
(§1) With reference to FIGS. 6A and 6B, plasma stability […] of CCP1-GN4 was measured at WuXi Biologics. The compound was incubated in human, rat, or mouse plasma at 37° C. for 2 hours. Aliquots were taken at various time points and the percent remaining of CCP1-GN4 was quantified by LCMS. For plasma protein binding (PPB), the compound (CCP1-GN4) was incubated with human, rat, or mouse plasma protein and the degree of plasma protein binding was determined by ultracentrifugation and LCMS.

Series [4] is described as follows: Plasma stability in rat plasma (LCMS, percent remaining). In kind it is in vitro ADME. The following applies: 37° C., 2 hours incubation, read-out: T1/2 plasma stability. The method, then: as §1
A short description of series [5]: Plasma stability in human plasma (LCMS, percent remaining). In kind it is in vitro ADME. The following applies: 37° C., 2 hours incubation, read-out: T1/2 plasma stability. The method, then:
as §1

Series [6] addresses mouse anti-citrullinated epitope recombinant antibody clone 12G1 (anti-CCP1) (Creative BioLabs).
Series [7] has the same target. Description: SPR (Biacore S200), antibody 12G1 amine-coupled on CM5, CCP1-GN4 as analyte, steady state affinity model.
In series [8] the target is recombinant biotin-ASGPR1 (Viva Biotech). The series is described as follows: SPR (Biacore 8K), biotin-ASGPR1 captured on SA chip, CCP1-GN4 as analyte, multi-cycle kinetics and steady state models.
Series [9] shares this target. Description: SPR (Biacore 8K), biotin-ASGPR1 captured on Sensor Chip SA, CCP1-GN4 as analyte, multi-cycle kinetics, 1:1 binding model, 25 C.

Bridge positions count the residues as written; N and C are the ends. Square brackets hold non-standard residues; d marks the D form. Ends that are not written are not given here. Cit = NC(=O)NCCC[C@H](N)C(=O)O Some results are limits rather than exact numbers.

As to `CC(=O)N[C@H]1[C@H](OCCOCCOCCNC(=O)CCOCC(COCCC(=O)NCCOCCOCCO[C@@H]2O[C@H](CO)[C@H](O)[C@H](O)[C@H]2NC(C)=O)(COCCC(=O)NCCOCCOCCO[C@@H]2O[C@H](CO)[C@H](O)[C@H](O)[C@H]2NC(C)=O)NC(=O)CNC(=O)CCOCCOCCOCCOCc2cn(CC[C@H](N)C(=O)N[C@@H](Cc3c[nH]cn3)C(=O)N[C@@H](CCC(N)=O)C(=O)N[C@H]3CSSC[C@@H](C(=O)NCC(=O)N[C@@H](CCCNC(=N)N)C(=O)N[C@@H](CO)C(=O)NCC(=O)N[C@@H](CO)C(=O)O)NC(=O)[C@H](CCCNC(=N)N)NC(=O)CNC(=O)[C@H](CCCNC(=N)N)NC(=O)[C@H](CO)NC(=O)[C@H](CCCNC(=N)N)NC(=O)CNC(=O)[C@H](CCCNC(N)=O)NC(=O)[C@H]([C@@H](C)O)NC(=O)[C@H](CO)NC(=O)[C@H](CCC(=O)O)NC(=O)[C@H](CCC(N)=O)NC(=O)[C@H](Cc4c[nH]cn4)NC3=O)nn2)O[C@H](CO)[C@H](O)[C@@H]1O` [CCP1-GN4], the Kd (usually the concentration at which binding is half-saturated) in series [1] came out at 75 nM; in [2], 1.92 nM. Also, the half-life in series [3], in [4] and in [5] was greater than 4.83 h throughout.

B1: CCP1-GN4 (peptide)
peptide: HQCHQEST[Cit]GRSRGRCGRSGS-OH
modifications: disulfide 3-16; not fully specified (N-terminus); also: Dab(N3) side-chain azide joined by CuAAC triazole to Target A001A-PEG4-Alkyne (tri-GalNAc)
Take B1: the EC50 (read off the curve); Anti-CCP1 MFI of 12G1 with goat anti-mouse AF488 in HEK-293-ASGPR cells in [6] came out at 50 nM. Further, the Kd is 75 nM in series [7] and 1.92 nM in series [8]. In addition, the off-rate (koff) (commonly a measure of how fast the partners let go of each other) in series [9] worked out at 0.029 s⁻¹. For the same molecule, in series [9], the kon (usually the second-order rate constant of association) stood at 1.51e+07 M⁻¹ s⁻¹.
